Laboratory results: article PMC2756588

T1: Abp1, P15891
T1 sequence (P15891 535-592, looked up): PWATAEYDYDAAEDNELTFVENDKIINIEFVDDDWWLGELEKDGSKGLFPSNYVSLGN

T2: Bbc1, P47068
T2 sequence (P47068 1-78, looked up): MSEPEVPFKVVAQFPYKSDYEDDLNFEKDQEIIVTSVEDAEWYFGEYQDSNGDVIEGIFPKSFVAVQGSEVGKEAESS

T3: Boi1, P38041
T3 sequence (P38041 1-86, looked up): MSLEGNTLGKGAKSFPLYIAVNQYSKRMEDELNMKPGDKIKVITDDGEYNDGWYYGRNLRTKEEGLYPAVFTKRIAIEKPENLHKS

T4: Boi2, P39969
T4 sequence (P39969 32-116, looked up): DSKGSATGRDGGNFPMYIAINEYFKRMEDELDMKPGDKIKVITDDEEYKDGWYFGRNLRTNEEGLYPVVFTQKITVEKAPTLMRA

T5: Bud14, P27637
T5 sequence (P27637 247-328, looked up): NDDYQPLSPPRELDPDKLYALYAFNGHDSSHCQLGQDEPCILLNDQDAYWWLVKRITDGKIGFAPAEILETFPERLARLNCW

T6: Bzz1-1, P38822
T6 sequence (P38822 478-572, looked up): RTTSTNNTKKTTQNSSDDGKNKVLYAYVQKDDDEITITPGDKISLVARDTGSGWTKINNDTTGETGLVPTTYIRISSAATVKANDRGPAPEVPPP

T7: Bzz1-2, P38822
T7 sequence (P38822 568-633, looked up): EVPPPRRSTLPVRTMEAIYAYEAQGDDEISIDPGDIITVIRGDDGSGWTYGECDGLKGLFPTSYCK

T8: Cdc25, P04821
T8 sequence (P04821 50-136, looked up): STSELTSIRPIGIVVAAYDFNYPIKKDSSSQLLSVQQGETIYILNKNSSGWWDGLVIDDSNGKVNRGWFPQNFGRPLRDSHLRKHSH

T9: Cyk3, Q07533
T9 sequence (Q07533 1-83, looked up): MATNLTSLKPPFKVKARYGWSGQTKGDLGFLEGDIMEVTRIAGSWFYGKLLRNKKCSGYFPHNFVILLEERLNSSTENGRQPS

T10: Fus1, P11710
T10 sequence (P11710 432-512, looked up): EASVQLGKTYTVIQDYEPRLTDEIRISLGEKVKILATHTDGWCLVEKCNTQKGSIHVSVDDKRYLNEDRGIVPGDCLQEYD

T11: Hof1, Q05080
T11 sequence (Q05080 590-669, looked up): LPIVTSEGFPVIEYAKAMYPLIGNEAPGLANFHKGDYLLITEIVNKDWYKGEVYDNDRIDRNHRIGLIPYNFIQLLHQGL

T12: Hse1, P38753
T12 sequence (P38753 208-285, looked up): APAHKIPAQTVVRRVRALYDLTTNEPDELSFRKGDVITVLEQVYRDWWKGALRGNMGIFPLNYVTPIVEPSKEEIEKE

T13: Lsb1, P53281
T13 sequence (P53281 45-122, looked up): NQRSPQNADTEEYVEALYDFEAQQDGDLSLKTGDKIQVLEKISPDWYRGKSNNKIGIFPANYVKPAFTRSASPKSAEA

T14: Lsb3, P43603
T14 sequence (P43603 385-451, looked up): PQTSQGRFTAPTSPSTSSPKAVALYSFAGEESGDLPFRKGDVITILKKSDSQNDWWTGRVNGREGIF

T15: Lsb4, P32793
T15 sequence (P32793 402-468, looked up): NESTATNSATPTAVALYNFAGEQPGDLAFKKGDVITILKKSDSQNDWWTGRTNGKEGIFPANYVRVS

T16: Myo5, Q04439
T16 sequence (Q04439 1072-1160, looked up): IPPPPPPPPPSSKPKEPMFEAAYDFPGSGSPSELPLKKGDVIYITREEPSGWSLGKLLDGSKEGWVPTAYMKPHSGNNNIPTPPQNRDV

T17: Nbp2, Q12163
T17 sequence (Q12163 103-180, looked up): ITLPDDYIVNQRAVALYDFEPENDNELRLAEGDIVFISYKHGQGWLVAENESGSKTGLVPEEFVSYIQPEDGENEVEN

T18: Pex13, P80667
T18 sequence (P80667 295-386, looked up): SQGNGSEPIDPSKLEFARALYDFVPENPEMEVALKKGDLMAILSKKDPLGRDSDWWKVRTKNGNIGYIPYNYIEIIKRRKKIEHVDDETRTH

T19: Pin3, Q06449
T19 sequence (Q06449 53-122, looked up): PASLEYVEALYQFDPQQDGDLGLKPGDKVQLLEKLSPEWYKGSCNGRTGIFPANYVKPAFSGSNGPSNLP

T20: Sla1-2, P32790
T20 sequence (P32790 60-140, looked up): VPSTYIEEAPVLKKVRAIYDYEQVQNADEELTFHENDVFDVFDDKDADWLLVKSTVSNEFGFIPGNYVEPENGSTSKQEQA

T21: Sla1-3, P32790
T21 sequence (P32790 344-424, looked up): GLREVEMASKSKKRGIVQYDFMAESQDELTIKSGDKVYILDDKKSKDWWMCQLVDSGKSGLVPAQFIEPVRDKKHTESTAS


What was measured:
Assay in all cases: SPOT array
Abp1, P15891 = molecular target: T1, Abp1, P15891; conditions: median of control spots 935
Bbc1, P47068 = molecular target: T2, Bbc1, P47068; conditions: median of control spots 796
Bem1-1, P29366 = conditions: median of control spots 4282
Bem1-1, P29366, sequence (P29366 55-141): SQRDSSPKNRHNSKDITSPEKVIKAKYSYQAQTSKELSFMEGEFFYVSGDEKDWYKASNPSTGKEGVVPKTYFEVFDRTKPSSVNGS

Bem1-2, P29366 = conditions: median of control spots 4347
Bem1-2, P29366, sequence (P29366 139-227): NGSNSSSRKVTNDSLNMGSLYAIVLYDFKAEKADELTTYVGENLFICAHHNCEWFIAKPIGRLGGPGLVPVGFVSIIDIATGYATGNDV

Boi1, P38041 = molecular target: T3, Boi1, P38041; conditions: median of control spots 1162
Boi2, P39969 = molecular target: T4, Boi2, P39969; conditions: median of control spots 1161
Bud14, P27637 = molecular target: T5, Bud14, P27637; conditions: median of control spots 956
Bzz1-1, P38822 = molecular target: T6, Bzz1-1, P38822; conditions: median of control spots 4446
Bzz1-2, P38822 = molecular target: T7, Bzz1-2, P38822; conditions: median of control spots 4538
Cdc25, P04821 = molecular target: T8, Cdc25, P04821; conditions: median of control spots 969
Cyk3, Q07533 = molecular target: T9, Cyk3, Q07533; conditions: median of control spots 1451
Fus1, P11710 = molecular target: T10, Fus1, P11710; conditions: median of control spots 1200
GST = conditions: median of control spots 978
Hof1, Q05080 = molecular target: T11, Hof1, Q05080; conditions: median of control spots 4086
Hse1, P38753 = molecular target: T12, Hse1, P38753; conditions: median of control spots 1727
Lsb1, P53281 = molecular target: T13, Lsb1, P53281; conditions: median of control spots 388
Lsb3, P43603 = molecular target: T14, Lsb3, P43603; conditions: median of control spots 406
Lsb4, P32793 = molecular target: T15, Lsb4, P32793; conditions: median of control spots 397
Myo3, P36006 = conditions: median of control spots 468
Myo5, Q04439 = molecular target: T16, Myo5, Q04439; conditions: median of control spots 471
Nbp2, Q12163 = molecular target: T17, Nbp2, Q12163; conditions: median of control spots 357
Pex13, P80667 = molecular target: T18, Pex13, P80667; conditions: median of control spots 1341
Pin3, Q06449 = molecular target: T19, Pin3, Q06449; conditions: median of control spots 2171
Rvs167, P39743 = conditions: median of control spots 2707
Rvs167, P39743, sequence (P39743 419-482): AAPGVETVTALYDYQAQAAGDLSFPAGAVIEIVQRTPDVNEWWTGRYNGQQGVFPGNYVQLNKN

Sho1, P40073 = conditions: median of control spots 1148
Sho1, P40073, sequence (P40073 287-367): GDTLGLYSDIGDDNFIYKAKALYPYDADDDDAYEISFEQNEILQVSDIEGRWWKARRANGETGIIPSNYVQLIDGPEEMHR

Sla1-2, P32790 = molecular target: T20, Sla1-2, P32790; conditions: median of control spots 712
Sla1-3, P32790 = molecular target: T21, Sla1-3, P32790; conditions: median of control spots 5475

Row | Binder | SPOT intensity (Abp1, P15891) | SPOT intensity (Bbc1, P47068) | SPOT intensity (Bem1-1, P29366) | SPOT intensity (Bem1-2, P29366) | SPOT intensity (Boi1, P38041) | SPOT intensity (Boi2, P39969) | SPOT intensity (Bud14, P27637) | SPOT intensity (Bzz1-1, P38822) | SPOT intensity (Bzz1-2, P38822) | SPOT intensity (Cdc25, P04821) | SPOT intensity (Cyk3, Q07533) | SPOT intensity (Fus1, P11710) | SPOT intensity (GST) | SPOT intensity (Hof1, Q05080) | SPOT intensity (Hse1, P38753) | SPOT intensity (Lsb1, P53281) | SPOT intensity (Lsb3, P43603) | SPOT intensity (Lsb4, P32793) | SPOT intensity (Myo3, P36006) | SPOT intensity (Myo5, Q04439) | further results
1 | NPTKSPPPPPSPSTM | 28 | 0 | 1 | 0 | 0 | 0 | 2 | 124 | 253 | 3 | 1 | 1 | 1 | 0 | 0 | 0 | 0 | 4 | 436 | 223 | SPOT intensity (Nbp2, Q12163): 0; SPOT intensity (Pex13, P80667): 43; SPOT intensity (Pin3, Q06449): 109; SPOT intensity (Rvs167, P39743): 0; SPOT intensity (Sho1, P40073): 2; SPOT intensity (Sla1-2, P32790): 0; SPOT intensity (Sla1-3, P32790): 1
2 | APPLPPTAPPPPSLP | 0 | 0 | 0 | 89 | 0 | 0 | 0 | 0 | 0 | 2 | 0 | 0 | 1 | 51 | 12 | 0 | 0 | 0 | 537 | 559 | SPOT intensity (Nbp2, Q12163): 0; SPOT intensity (Pex13, P80667): 4; SPOT intensity (Pin3, Q06449): 0; SPOT intensity (Rvs167, P39743): 0; SPOT intensity (Sho1, P40073): 0; SPOT intensity (Sla1-2, P32790): 0; SPOT intensity (Sla1-3, P32790): 3
3 | MSPLGAPPPPPHKDH | 0 | 0 | 0 | 0 | 0 | 0 | 0 | 0 | 1 | 0 | 0 | 0 | 1 | 0 | 0 | 0 | 0 | 0 | 245 | 108 | SPOT intensity (Nbp2, Q12163): 0; SPOT intensity (Pex13, P80667): 0; SPOT intensity (Pin3, Q06449): 0; SPOT intensity (Rvs167, P39743): 0; SPOT intensity (Sho1, P40073): 0; SPOT intensity (Sla1-2, P32790): 0; SPOT intensity (Sla1-3, P32790): 0
4 | PPIPNAPLSPAPAVP | 0 | 0 | 0 | 0 | 0 | 0 | 2 | 0 | 1 | 2 | 0 | 0 | 0 | 0 | 0 | 0 | 0 | 0 | 483 | 443 | SPOT intensity (Nbp2, Q12163): 0; SPOT intensity (Pex13, P80667): 1; SPOT intensity (Pin3, Q06449): 0; SPOT intensity (Rvs167, P39743): 0; SPOT intensity (Sho1, P40073): 0; SPOT intensity (Sla1-2, P32790): 0; SPOT intensity (Sla1-3, P32790): 0
